This note sets out measurements from patent CN116724049A (UNIV KOELN; PHILIPPS UNIV T MARBURG, dated 2023).

The assay deals with SARS-CoV-2的刺突(S)蛋白的受体结合结构域(RBD) (SARS-CoV-2, UniProt P0DTC2 319-541).

B1: MnC4t2p2_A4 (antibody, V domains shown)
VH: QVQLVQSGSELKKPGASVKISCKASGYIFINYAMNWVRQAPGQGLEWMGWINTNTGNPTYAQDFTGRFVFSLDTSLSTAYLQISSLEAEDTAVYYCAKIGSRNSLGVWGQGTLVTVSA
VL: EIVLTQSPGTLSLSPGERATLSCRASHSVDRSYLAWYQQKPGLAPRLLIYGASSRATGIPDRFSGSGSGTDFTLTISRLEPEDFALYYCQHFGTSSVTFGRGTRLEIK
The Kd is the concentration at which binding is half-saturated. A low value points to tighter binding. In turn, B1 displayed a Kd of 14 nM.

B2: MnC2t2p1_C11 (antibody, V domains shown)
VH: QVQLVQSGAEVKKPGSSVKVSCKASGGTFSRYTIIWVRQAPGQGLEWMGRIIPILDIANYAQKFQGRVTITADKSTSTAYMELSSLRSEDTAVYYCAREGGLDYFGSRNSGWTYTWFDPWGQGTLVTVSS
VL: DIQMTQSPSSLSASVGDRVTITCRASQNISSYLNWYQQKPGKAPNLLIYAASSLQSGVPPRFSGSGSGTDFTLTISSLQPEDFATYYCQQSYSTLYSFGQGTKLEIK
As for B2, the Kd came to 0.02 nM.

B3: MnC2t1p1_A3 (antibody, V domains shown)
VH: EVQLVESGGGLVQPGGSLRLSCAASGFTVSSNYMSWVRQAPGRGLEWVSVIYSGGSTFYADSVKGRFTISRDNSKNTLYLQMNSLRPEDTAVYYCATGARFGESPFDYWGQGTLVTVSS
VL: DIQMTQSPSSVSASVGDRVTITCRASQGISSWLAWYQQKPGKAPKLLIYAASSLQSGVPSRFSGSGSGTDFTLTISSLQPEDFATYYCQQANSFPGTFGQGTKVEIK
B3 displayed a dissociation constant Kd of 0.7 nM.

B4: MnC4t2p1_B3 (antibody, V domains shown)
VH: EVQLVESGGHLVQPGRSLRLSCAASGFTFDDYAMHWVRQVPGKGLEWVSGISWNGGILDYADSVKGRFTISRDNAKNSLYLHMRSLRTDDTALYYCAKDLRRQDYYADWYFDLWGRGTLVTVSS
VL: DIQMIQSPSSVSASVGDRVTITCRASQGISSWLAWYQQKPGKAPKLLIYAASTLLSAVPSRFSGSGSGTDFTLTISSLQPEDFATYYCQQGNSFPFTFGPGTIVDV
In turn, B4 yielded a Kd of 0.09 nM.

B5: FnC1t2p1_D4 (antibody, V domains shown)
VH: QVQLVQSGSELKKPGASVKVSCKASGYTFLRFAMNWLRQAPGQGLEWMGWIDTNTGTPTYAQGFTGRFVFSLDTSVSTAYLQISSLKAEDTAVYYCARSLRGANLVPWGQGTLVTVSS
VL: DIQMTQSPSSLSASVGDRVTITCQASQDVSNYLNWYQQQPGKAPKLLIYDAFNLETGVPSRFSGSGSGTDFTFTISSLQPEDIATYYCQQYDNLPLTFGGGTKVEIK
Take B5: binding was characterised by a dissociation constant (Kd) of 0.2 nM.

B6: FnC1t2p1_G5 (antibody, V domains shown)
VH: B5 VH
VL: B5 VL
B6 gave a dissociation constant (Kd) of 0.1 nM. This Kd lies about 2-fold lower than the previous one.
